{"source": "patent US20220259325A1", "key": {"[1]": {"target": "human MASP-1 (protein in human serum) (human)", "sequence (chain, as listed by the source)": "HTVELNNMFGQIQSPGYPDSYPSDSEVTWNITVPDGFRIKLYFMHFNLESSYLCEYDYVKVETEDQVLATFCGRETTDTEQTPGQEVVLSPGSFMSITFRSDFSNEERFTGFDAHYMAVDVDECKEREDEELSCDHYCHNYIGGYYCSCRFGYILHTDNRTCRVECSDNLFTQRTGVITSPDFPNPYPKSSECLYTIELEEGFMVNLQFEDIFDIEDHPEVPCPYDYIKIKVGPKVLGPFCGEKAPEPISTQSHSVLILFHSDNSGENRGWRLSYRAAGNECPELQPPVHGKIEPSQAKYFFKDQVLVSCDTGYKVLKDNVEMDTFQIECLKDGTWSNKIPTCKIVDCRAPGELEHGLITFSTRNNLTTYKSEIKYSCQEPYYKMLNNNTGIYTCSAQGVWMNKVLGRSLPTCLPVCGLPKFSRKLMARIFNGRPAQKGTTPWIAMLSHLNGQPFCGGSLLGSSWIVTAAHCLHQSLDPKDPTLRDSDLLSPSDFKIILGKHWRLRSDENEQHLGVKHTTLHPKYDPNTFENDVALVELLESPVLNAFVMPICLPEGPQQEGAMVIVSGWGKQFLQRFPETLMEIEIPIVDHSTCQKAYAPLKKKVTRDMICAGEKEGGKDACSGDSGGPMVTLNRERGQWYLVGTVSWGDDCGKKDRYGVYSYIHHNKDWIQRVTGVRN"}, "[2]": {"target": "human MASP-2 (protein in human serum or plasma) (human)"}}, "data": [{"substance": "SGMI-1Fc (mature polypeptide fusion comprising SGMI-1, linker #1 and human IgG1-Fc) (Fc fusion)", "values": [{"measurement": "C3b deposition from 1% normal human serum on mannan-coated wells (IC50)", "setting": "[1]", "value": 0.027, "unit": "µM"}]}, {"substance": "SGMI-2Fc (mature polypeptide fusion comprising SGMI-2, linker #1 and human IgG1-Fc) (Fc fusion)", "values": [{"measurement": "C3b deposition from 1% normal human serum on mannan-coated wells (IC50)", "setting": "[2]", "value": 0.3, "unit": "µM"}]}]}
